Test results taken from patent US20250354175, “ATTP MV4-DERIVED SITE-SPECIFIC RECOMBINATION AND ITS USE FOR INTEGRATION OF SEQUENCE OF INTEREST” (INSTITUT NATIONAL DE RECHERCHE POUR L'AGRICULTURE, …, published 2025).

T1: mv4Int (369 aa integrase) (Lactobacillus delbrueckii bacteriophage …)
T1 chain: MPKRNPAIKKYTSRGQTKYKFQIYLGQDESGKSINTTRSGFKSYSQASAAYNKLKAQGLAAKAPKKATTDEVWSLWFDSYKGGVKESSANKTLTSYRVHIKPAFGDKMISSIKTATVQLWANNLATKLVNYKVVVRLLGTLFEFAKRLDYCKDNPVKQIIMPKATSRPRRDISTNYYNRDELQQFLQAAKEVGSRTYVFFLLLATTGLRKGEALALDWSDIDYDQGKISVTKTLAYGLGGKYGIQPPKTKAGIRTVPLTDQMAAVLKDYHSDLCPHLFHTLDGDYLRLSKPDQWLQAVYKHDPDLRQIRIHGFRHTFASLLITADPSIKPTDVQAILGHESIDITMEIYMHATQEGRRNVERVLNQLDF


What was measured:
[1] = target: T1, mv4Int (369 aa integrase); experiment: EMSA; stable with P'12 arm DNA; unstable without; room temperature, polydIdC; conditions: tags: expressed from pET15b; label: Cy3 on bottom strand
Procedure: 5′ Cy3 end-labelled synthetic oligonucleotides (HPLC purified) were obtained from Eurofins. Labelled double strand DNA substrates were prepared by hybridization of complementary oligonucleotides (Table 7C) in 10 mM Tris pH 7.5, 50 mM NaCl by incubating the samples 5 min at 95° C. in a thermal cycler (Biorad) and decreasing the temperature of 1.5° C./min until it reaches 25° C. Binding reactions (20 μl) were performed with 0.87 pmol of labelled core- or arm-type DNA and 4.48 pmol of unlabelled arm- or core-type DNA in buffer containing 25 mM Tris pH 8, 75 mM NaCl, 10% glycerol, 0.5 mM DTT, 0.5 mM EDTA, 1 μg polydIdC (Sigma), 0.1 mg/ml BSA. The protein was added, the reaction performed at room temperature for 20 min and samples were loaded onto a non-denaturing 7.5% polyacrylamide gel (Mini-PROTEAN TGX, Biorad). The gels were run at 4° C., 75V for 2 h.
However, if DNA containing the P′1-P′2 arm-binding sites was added to the reaction, the inhibition was removed and ^λInt was able to stably bind to the core-binding sites. […]

[2] = target: T1, mv4Int (369 aa integrase); experiment: EMSA; with arm DNA; complex III increases with mv4Int; conditions: tags: expressed from pET15b; label: Cy3 on bottom strand
Procedure: However, if DNA containing the P′1-P′2 arm-binding sites was added to the reaction, the inhibition was removed and ^λInt was able to stably bind to the core-binding sites. To determine if ^mv4Int N-ter domain also exerts such inhibitory effect on its C-ter domain, they compared the ^mv4Int binding to a labelled 35-bp dsDNA containing the 21-bp core-attP region (Table 7C), in the presence or absence of unlabelled dsDNA containing the P′1 and P′2 arm-type binding sites (Table 7C). ^mv4Int binding to the COC′ sequence appeared quite unstable, as only faint bands and strong background smear can be observed (lane 3, FIG. 8A). Addition of a 28-bp dsDNA containing the P′12 sequences (Table 7C) greatly stimulates and stabilizes ^mv4Int binding to the core-attP sequence and led to the formation of three complexes (lane 4, FIG. 8A). […] To ensure that the stabilization effect was due to the binding of the N-ter domain of ^mv4Int to the arm-type binding site, the 28-pb P′12 dsDNA was replaced by a DNA duplex of 40 pb containing the P′1 and P′2 sites (Table 7C). A stabilization effect on the binding to the COC′ sequence was observed (lane 5, FIG. 8A), with the formation of two complexes (II* and III*) of mobility lower than the complexes observed with the 28-bp P′12 fragment. […]

Row | Binder | binding result [1] | binding result [2]
1 | COC' WT core-attP 35 bp (dsDNA) DNA 1: GGTATTGGAAAGAACCTGTACTCTCCTTGCGTAAC DNA 2: GTTACGCAAGGAGAGTACAGGTTCTTTCCAATACC | binds | 
2 | BOB' WT attB 35 bp (dsDNA) DNA 1: GGTATTGTTCAAATCCTGTACTCTCCTTGCGTAAC DNA 2: GTTACGCAAGGAGAGTACAGGATTTGAACAATACC |  | binds
